Experimental data as given in the DeepSol protein solubility set.

Test: soluble on expression in E. coli; label from the status in PepcDB or PDB records

Sequence | soluble on expression in E. coli
MGSDKIHHHHHHMNSILINHKAKADISISCFGEVLWDCFPDGKRVGGAPLNVCVRLNALGIKGSMISAVGDDPLGHELVSFIDDRGVNRDCIAIDPVKSTSTVQVTLDKNGSASYDIVADTAWDNIALTEDIIEQVNRTDVLVFGSLIGRNDVSLNTLTALVKLASFSVFDVNLRAPHYQIDSVINLMKKADFIKLNDDELYEIAKAMGSPFHSLEQNLDFVAIQTNTDYLCVTKGSHGALLSIGGQKYYNSGYLVNVVDTVGAGDSFLGSLLYQLCSDSNPQYAIDFACAVGAMVAESHGATPMITLNEIQAFMHPV | not soluble
MGSDKIHHHHHHMSKGTIRVLQLYPRDMNIYGDWGNALVLQQRLRWHGYTPELLEYNVGDEFPAGVDLIVGGGGQDSGQLVIQDDLLSRESTLKELAEAGTPMLLICGMYQLFGKFFKTRTGSVIPGIGVLDVETHGTDERLIGNVTVSSPEFGDVLGYENHSGQTTLGPGVRPLGSTPKGIGNNSKDGQEGARYRNIVASYLHGSLLPKNPAIADFLIRTAVERKYGSFTPGAPDDRYAVMAREHAARRPR | not soluble
MASGDLVRYVITVMLHEDTLTEINELNNYLTRDGFLLTMTDDEGNIHELGTNTFGLISTQSEEEIRELVSGLTQSATGKDPEITITTWEEWNSNRK | soluble
MAGAITLACTIRFEANAEHVYLSSGTKQTVYHYPFPMSTIHITLNGERKEVPAGSTVSELLVIADADRQPVAVVVNEHIVRPDQRDSYILQERDQVEILVFAGGGLEHHHHHH | soluble
EAYIGVLIDDLVTKGTNEPYRLLTSRAEYRLLLRHDNADLRLTEKGYEIGLIARERYERFCEKKAQIAAEKKRLESITVKPSKEVNALLEEVGSAPLKEAVQANVFLKRPEVTYEHVAKVIPAPEQELSADVAEQVEIQIKYEGYISKMLQQVERAKKMNDKKIPEDLDYDAINGLATEAKQKLSEVRPLSVGQASRVSGVNPSDISILLVYLE | not soluble
MPISELEKKWTGLTFEIAAEEMRRLKSEPTDRERLKLYALYKQALHGDIPNEDVYPVPAGDEVGRKKYAAWKSQKGANSEKCRADYVAIAEEMIKKYGRNIVRCKWNSEVWSVDY | soluble
GPGSMSKQKNVEINYDEVDETTGFKAAEMFVWLKFEESYLQKPEDEREADVDAWADTFCEEMEGEGMNYDRNFVRSVCTLGIYAGLRDEFQQRTGSGKAIYANGDRYDGEFFEGKKHGRGRYIFVSLGKSECDRIVEKELQKLGDVVAGENFVKAVADRYKIGCHIISYIIEYGFHPCYHGDYVRGKRVGRGLMKNKDGTVYKGEFLENKREGRGMFFYLNGDIYSGNWKNGRKHGYGTYHFVGGNEYRGMWNDGVFTHGQWIFPDGVYYEGHFNKKNRPCDEAASMHYPALKMAQTGTFKRGTWAPTSALEVCEETPVDGMTWTD | soluble
GQSITDYNYKKPLHNDYQILDKSKIFGSNSGSFVMYSMKKDKYYIYNEKESRKRYSPNSTYKIYLAMFGLDRHIINDENSRMSWNHKHYPFDAWNKEQDLNTAMQNSVNWYFERISDQIPKNYTATQLKQLNYGNKNLGSYKSYWMEDSLKISNLEQVIVFKNMMEQNNHFSKKAKNQLSSSLLIKKNEKYELYGKTGTGIVNGKYNNGWFVGYVITNHDKYYFATHLSDGKPSGKNAELISEKILKEMGVLNGQ | soluble
MSLKPRIAIVGLGLIGGSLARRLVNAGCEVTAWNHNDRPYATAEADGIICKPTLAALAETKPNVLVLCNPLKAMPEILGALKPLIDTETTTLTDVGSVKGMVRDQVKAIGLDGCYVGAHPMAGNELSGWEASDPTLYDDALWAITVDEHTEYRRFRAVADMIVNRCGNRLIVLDDATHDRCAALISHMPHVIATAMINELVANPNRNIAAALAAGSWRDMTRVALTDPNRTRAMVEEDAANVETLLRNMANRLTLVANVLHDMADTGVRPTEGDVKQMDRFFAQGQPFRDYKAASRQPEYAEHCATVELSIPENDWQRTLLESARRGEHIVRFDGERTAIAQARSVEGHHHHHH | soluble
MIDNPTPKSSMTFKELYDEWLLVYEKEVQNSTYYKTTRAFEKHVLPVIGSTKLSDFTPMELQNFRNDLSEKLKFARKLFGMVRKVFNHAALLSYIQANPALPVTSQGIKKKVEELEHHHHHH | soluble
MGSDKIHHHHHHMTAASSVSAPGAPTIGVDFGTTNTVVSLTLGDDQARLVRYSINNRDLFAFRSALSFHSVQGVGEAANERVVEAGPWAIEAYLEDPLETRFIQSFKTFAASAAFTETRILNKRYQFEDLLAAFLLRLRDHAGAQLSELPPRIIVGRPVTFAGSSPDEALALTRYEAAFERLGFTDIRYAYEPVGAAFFFARQLKQDATVLVADFGGGTSDFSLVRFERAADGTLRSTPLSRSGVGVAGDAFDYRIIDQLVSPELGKGSDYRSFSNSLPIPQRYYAAFARWDQLALLRASKDMRDIRALERTAVEPDKIAALIEVLDGNHGYALYRSVSALKEALSSQDQATFRFEAGSVRIEKPVARVEFEAWIAPELAAIETAVGQALDQADLTEAGVDRVFLTGGSSFVPAVREIFLRRFGADKIETGGEFESIASGLALIGREADLDLWTMRAG | not soluble
MAQLFFKYGAMNSGKTIEILKVAHNYEEQDKPVVLMTSGLDTRDGVGKVSSRIGLRRDAIPIFEETNVFDLINDLSYKPFCVLVDECQFLNKHHVIEFARIVDELDIPVMAFGLKNDFRNELFEGSKYLLLYADKLEELKTICWFCHKKATMNLHYIDGNPVYEGDQVQIGGNEAYYPVCRKHYFHPKTVNEEQLEHHHHHH | soluble
NNAKEALELCDKRDWDLAELSYRYELQFHTKEEICAYCLEIWEVMQEVYYNGTHPNEDYLPGKLHLKRRAKGLKERVAMTADPMGIIDFISLYAIAIAEENASGAKVVTAPTNGACAVIPAVMLYLKNHTIGFSDEKVIEFLLTAMLIGSFYKKNASISGAEAGCQAEIGSASSMAAAAMATVLGANAFKACNAAEMAMEHHLGLTCDPVAGLVQIPCIERNAFGAIKAISAARMAMTRKSTPMVSLDEVIETMYETGKDMNYKYKETSLGGLATN | not soluble
MYFEGYGYRGSTFEQTYRCYPASFIDKPQLETGDKIIMPPSALDRLASLHIEYPMLFEVHNAAAERTSHCGVLEFIAEEGMIYMPYWMMQNLLLTEGDMVFIKNANLPKGTYVKLQPHTTDFLDISNPKAILEKTLRNYSCLTTGDSIMVAYNNKKYYIDIVETKPSNAISIIETDCEVDFAPPLDYKEPERQKAAVPPSTAPTAEEAAEEEPKFIPFTGPGRRLDGKAPKDKDVSASSPAKRQANATNSVQPSTASTSQSSSSRKTTEKLVFGPGGNRTSKETEKVPEKEPKEDPKKDEPKFSAFTGRKYSLKG | soluble
MKVTFMNLEERKKLETKSIDELDLIGKKVCVDTCVVIDGRITELIERGKLKDATIIIPEAVVSELEYQANMGREIGYKGIEELRKLIEKASEHNIKVEYYGERPTREEIFLAKSGEIDAMIRKVAKETNSILLTSDWIQYNLAKAQGIEAYFLEAAEEEVELVLD | not soluble
MGSDKIHHHHHHMTVIDLSALDPPDLVETLDFEAAYQYKLQHFKSIYPDWTAALESDPVVKLIELAAYDEVRFRARVNDAGRAVLLAYSTGADLEHLAVLWNLQRETVDPGDPEAHPPVPATRERDERLRLRTQMGIERSSTAGPFGAYRSLAMDASPDVADVRVDRPEAGVVRVVVKSYSNGGVASAALLDTVRRALSPEDRRPLNDSLLVVAARPVNYAIVADVYIGRGPDPGVVLAARRQDLDIAVAAGEALRVGMPRSAVTGALHPKASGVVRVDLKLPAADVVCAIDQFARCTSIVLNPKVADDD | not soluble
MNPLVIKLGGVLLDSEEALERLFTALVTYREKHERPLVIMHGGGCLVDELMKRLALPVVKKNGLRVTPADQIDIITGALAGTANKTLLAWAVKHQINAVGLCLADGNTVTVTLLDAELGHVGKAQPGSAALVQTLLAAGYMPIISSIGITVEGQLMNVNADQAATALAATLGADLILLSDVSGILDGKGQRIAEMTAQKAEQLIAQGIITDGMVVKVNAALDAARSLGRPVDIASWRHSEQLPALFNGVPIGTRISV | not soluble
MHDLDRNEDRLRGTYDFPFEFHHIDHNHPRYVMSYHWHVEYEIIRILDGSLTVTLDEKSFTATAGDIIFVHSGILHSGIPEDCVYQCIVFDGNTFLKNNSVCAGYMQKIIHQEILIYHHFTPKYVDICATVNSLFDALWKKPSGYELSVLGQFYHFFGLIFGNHYYLESVTRARRDYKRILQLKQVLDFIEHNYASPLTLQQLSASVSMSPKYFCRFFSEMTHQTPMDYLNHQRIEQACYQLSTTDDSITEIAYRNGFNDLSYFIRTFKKYKGITPGKYKKA | not soluble
MERGPLIFSASIGNGHNQAAKALQVEFQNKGYQPEIIDTFYSLSPALHKFMLTSYVNLLKVGPRIWQKIYFQAEKYPLFLFLDQFATFFVESLHATVKSNRCSFLVSTHPFVTAFLVRLKSKKQLNLPLYTVITDFVLHPAYLRPEIDGYFTSDPNFTDFAKLNNVSDDRFFPTGIPIPNLESIDQPKWKVRNDLGLDPQRKVLIIAGGGIGLTNYAQVIRALECLPEPIQLLCMIGHNYQVKEKISRIKSKHELKVIEFTDKFLLYLKASDAILSKAGGLTMAESLVCETPIIIHQPVPGHEEHNAKFLIDAGAALRVKGSKEIPTTIKRVLYEEACFGPMIENARKLKKPNAANEIVEQMLLLVKEQQHAFRLEHHHHHH | soluble
MAMIKQILRLLFLLAMYELGKYVTEQVYIMMTANDDVEAPSDYVFRAEVSELEHHHHHH | not soluble
MVKERRTELVEGFRHSVPYINAHRGKTFVIMLGGEAIEHENFSNIVNDIGLLHSLGIRLVVVYGARPQIDANLAEHHHEPVYHKQTRVTDAKTLELVKQAAGMLQLEITARLSMSLNNTPLQGAHINVVSGNFIIAQPLGVDDGVDYCHSGRIRRIDEEAIHRQLDSGAIVLMGPVAVSVTGESFNLTSEEIATQLAIKLKAEKMIGFCSSQGVYNQAGEIVSELFPNEAQARVEELEADEDYNSGTVRFLRGAVKACRSGVRRCHLISYQENGALLQELFSRDGIGTQIVMESAEQIRRATINDIGGILELISPLEQQGILVRRSREQLEMEIDKFTIIQRDNTTIACAALYPFPEEKIGEMACVAVHPDYRSSSRGEVLLERIAAQARQMGLSKLFVLTTRSIHWFQERGFTPVDIDLLPESKKQMYNYQRRSKVLMADLA | not soluble
MNCRLGCGACCIAPSISSVIPGMPNGKAAGERCVQLSDDNLCLIFGSPERPAVCCDFEASLDVCGHSNEEALWLITNLESQTSLEHHHHHH | not soluble
MGSDKIHHHHHHMEAIQVASVKDNFVKTLEKIRKKHGVDIIALFAIRQSLAIHVINSADNPVSFSAGTIFNLTLTPLVEEFLFNVKTFENHPQKTRFALVENVQWELYIPVVFKEFPTGFVYVASKKKRDAEKTEGIIRDLQDFLKAHGLEYYFLEYSVVLDQLLTTVAILIDRLFSRVSRYTLNHIYNVAFWAEEIGKIVGLDEKRLAKLYLAGLLHDIGKVYIDERILNKEGRLTLQEYQEMKKHVDYSYNMVKDLMIWDIEDDVALWVVQHHEKFDGSGYPFGLKEEEITPEGRILKIADTLDAMLSPRSYRNPFPLDDVIKEIERLRGKDFDPLLADLTVDLLREKKESLGLFEGRILPATLIAGEGIHEGILRKNDGYHVFISDYV | not soluble
MTNNQTLDILLDVYAYNHAFRIAKALPNIPKTALYLLEMLKERRELNLAFLAEHAAENRTIEDQYHCSLWLNQSLEDEQIANYILDLEVKVKNGAIIDFVRSVSPILYRLFLRLITSEIPNFKAYIFDTKNDQYDTWHFQAMLESDHEVFKAYLSQKQSRNVTTKSLADMLTLTSLPQEIKDLVFLLRHFEKAVRNPLAHLIKPFDEEELHRTTHFSSQAFLENIITLATFSGVIYRREPFYFDDMNAIIKKELSLWRQSIV | not soluble
